In US20210340238A1, “TGFß1 INHIBITORS AND USE THEREOF” (Scholar Rock, Inc., priority 2018, published 2021):

How the values were obtained:
[1] = tested on: TGFβ downstream tonic signaling; experiment: TGFβ downstream tonic signaling in non-diseased rat BAL; format: in vivo
[2] = rat, in vivo
Protocol: Animals receiving pan-TGFβ antibody were dosed once intravenously (at day 1) at a volume of 10 mL/kg and sacrificed at day 8 and necropsies performed. […] Animals receiving LY2109761 were dosed by oral gavage once daily for five or seven days. Animals were sacrificed and necropsies performed.

[3] = in vivo, cited from earlier work

Molecule | Effect on TGFβ downstream tonic signaling [1] | Bone findings [2] | Exposure: DN Cmax ([3]; human) | Exposure: Half-life ([3]; human) | Previously reported adverse events in human patients (CTCAE grade) [3]
c1ccc(-c2nn3c(c2-c2ccnc4cc(OCCN5CCOCC5)ccc24)CCC3)nc1 [LY2109761] | inhibit TGFβ downstream tonic signaling in non-diseased rat BAL | macroscopic abnormally shaped sternum and microscopic increased thickness of the hypertrophic zone in the endplate of the sternum and physis of the femur and tibia | – | – | –
GC1008: human analog of 1D11, pan-TGFβ antibody Fresolimumab (GC1008) | – | – | DN Cmax~(350 ng/mL)mg (ng/mL)mg | Half-life: 21.7 d | leukocytosis (grade 3), fatigue (grade 3), hypoxia (grade 3), asystole (grade 5), leukopenia (grade 1), recurrent, transient, tender erythematous, nodular skin lesions, suppurative dermatitis, and herpes zoster
